Reference: patent US20080026996A1, “Selective Vpac2 Receptor Reptide Agonists” (ELI LILLY AND COMPANY, priority 2004, published 2008)
Where no end group is shown, it is not given here. [ ]: non-standard residue; d: D form. The star is where a group is joined. Hexanoyl = CCCCCC(=O)*; Aib = CC(C)(N)C(=O)O

T1: human VPAC2 receptor (human, UniProt P41587 24-438)
T1 sequence (looked up): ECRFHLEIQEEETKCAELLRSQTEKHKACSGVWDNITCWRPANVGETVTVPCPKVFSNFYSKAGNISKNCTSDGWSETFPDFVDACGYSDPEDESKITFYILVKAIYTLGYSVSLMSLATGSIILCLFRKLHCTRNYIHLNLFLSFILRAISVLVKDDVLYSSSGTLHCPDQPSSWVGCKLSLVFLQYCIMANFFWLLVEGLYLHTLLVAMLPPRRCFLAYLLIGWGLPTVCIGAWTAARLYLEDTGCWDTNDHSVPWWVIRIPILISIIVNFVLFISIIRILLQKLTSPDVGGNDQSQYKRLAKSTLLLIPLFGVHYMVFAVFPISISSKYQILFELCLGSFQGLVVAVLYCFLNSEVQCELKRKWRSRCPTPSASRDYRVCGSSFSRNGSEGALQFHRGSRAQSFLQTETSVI


molecular target: T1, human VPAC2 receptor; assay: cell-based or functional assay

Row | Binder | EC50 cAMP, Alpha Screen | EC50 cAMP, DiscoveRx
1 | Hexanoyl-HSDAVFTDNYTRLRK(Ac)QVAAK(Ac)KYLQSIKNKRYGGPSSGAPPPS [P193] | 0.18 nM | –
2 | Hexanoyl-HSDAVFTDNYTKLKKQVAAKKYLQSIKNKKYGGPSSGAPPPS [P103] | 0.12 nM | –
3 | HSDGVFTDNYTRLRKQVAAKKYLQSIKNKRYGGPSSGAPPPS [P102] | 27.4 nM | –
4 | HSDAVFTDNYTRAAAKVAAKKYLQSIKNKRYGGPSSGAPPPS [P88] | 1720 nM | > 1000 nM
5 | Hexanoyl-HVDAVFTDNYTRLRKQVAAKKYLQSIKNKRYGGPSSGAPPPS [P99] | 0.14 nM | –
6 | Hexanoyl-HSDAVFTDNYTRLRKQVAAKKYLQSFKNKRYGGPSSGAPPPS [P106] | 0.16 nM | –
7 | Hexanoyl-HSDAVFTDNYTRLRRQVAARRYLQSIRNRRYGGPSSGAPPPS [P98] | 0.15 nM | –
8 | Hexanoyl-HSDAVFTDNYTRLRKQVAAKKYLQSTKNKRYGGPSSGAPPPS [P108] | 0.27 nM | –
9 | Hexanoyl-HSDAVFTDNYTRLRKQVAAKKYLQSLKNKRYGGPSSGAPPPS [P107] | 0.12 nM | –
10 | HSDAVFTDNYTRLLAKVAAKKYLQSIKNKRYGGPSSGAPPPS [P89] | 1.23 nM | 0.7 nM
11 | Hexanoyl-H[dA]DAVFTDNYTRLRKQVAAKKYLQSIKNKRYGGPSSGAPPPS [P101] | 0.21 nM | –
12 | HSDAVFTDNYTREKEKVAAKKYLQSIKNKRYGGPSSGAPPPS [P87] | > 10000 nM | –
13 | Hexanoyl-HSDAVFTDNYTRLRKQVAAKKYLQSWKNKRYGGPSSGAPPPS [P110] | 0.13 nM | –
14 | HSDAVFTDNYTRAKAKVAAKKYLQSIKNKRYGGPSSGAPPPS [P94] | 696 nM | > 1000 nM
15 | Hexanoyl-HSDAVFTDNYTRLRKQVAAKKYLQSVKNKRYGGPSSGAPPPS [P109] | 0.22 nM | –
16 | Hexanoyl-HSDAVFTDNYTRLRKQVAAKKYLQS[Aib]KNKRYGGPSSGAPPPS (ends and bridges not checked) [P188] | 0.32 nM | –
17 | MHSDAVFTDQYTRLRKQVAAKKYLQSIKQKRYGGPSSGAPPPS (N-terminal methionine added (M-)) [P100] | 0.28 nM | –
18 | IHSDAVFTDNYTRLRKQVAAKKYLQSIKNKRYGGPSSGAPPPS (N-terminal isoleucine added (I-)) [P105] | 8.33 nM | –
